Laboratory results from article PMC9491089.

Columns and labels:
[1] = biological target: recombinant P. xylostella BJSP-1-GST fusion protein (basic juvenile hormone-suppressible protein 1-like) (P. xylostella); test: ELISA; plates coated with BJSP-1-GST (8 μg/well, 4°C overnight); increasing concentrations of Cry7Ab4 toxic core added; detected with anti-His antibody
[2] = biological target: recombinant His-tagged Cry7Ab4 toxic core (residues 1-637) (Bacillus thuringiensis); test: ELISA; plates coated with Cry7Ab4 toxic core (8 μg/well, 4°C overnight); increasing concentrations of BJSP-1-GST added; detected with anti-GST antibody

Substance | concentration at which binding was saturated [1] | concentration at which binding was saturated [2]
recombinant His-tagged Cry7Ab4 toxic core (residues 1-637) (domain or fragment) | 16 µg/mL | –
recombinant P. xylostella BJSP-1-GST fusion protein (basic juvenile hormone-suppressible protein 1-like) (natural protein) | – | 64 µg/mL
